According to paper PMC8629194:
pKd: −log10 of the molar value.

Biological target: wt ACE2_(740)-Fc (M31) (human) (UniProt Q9BYF1)
Assay: SPR

Sequence of wt ACE2_(740)-Fc (M31) (human) (Q9BYF1 18-740): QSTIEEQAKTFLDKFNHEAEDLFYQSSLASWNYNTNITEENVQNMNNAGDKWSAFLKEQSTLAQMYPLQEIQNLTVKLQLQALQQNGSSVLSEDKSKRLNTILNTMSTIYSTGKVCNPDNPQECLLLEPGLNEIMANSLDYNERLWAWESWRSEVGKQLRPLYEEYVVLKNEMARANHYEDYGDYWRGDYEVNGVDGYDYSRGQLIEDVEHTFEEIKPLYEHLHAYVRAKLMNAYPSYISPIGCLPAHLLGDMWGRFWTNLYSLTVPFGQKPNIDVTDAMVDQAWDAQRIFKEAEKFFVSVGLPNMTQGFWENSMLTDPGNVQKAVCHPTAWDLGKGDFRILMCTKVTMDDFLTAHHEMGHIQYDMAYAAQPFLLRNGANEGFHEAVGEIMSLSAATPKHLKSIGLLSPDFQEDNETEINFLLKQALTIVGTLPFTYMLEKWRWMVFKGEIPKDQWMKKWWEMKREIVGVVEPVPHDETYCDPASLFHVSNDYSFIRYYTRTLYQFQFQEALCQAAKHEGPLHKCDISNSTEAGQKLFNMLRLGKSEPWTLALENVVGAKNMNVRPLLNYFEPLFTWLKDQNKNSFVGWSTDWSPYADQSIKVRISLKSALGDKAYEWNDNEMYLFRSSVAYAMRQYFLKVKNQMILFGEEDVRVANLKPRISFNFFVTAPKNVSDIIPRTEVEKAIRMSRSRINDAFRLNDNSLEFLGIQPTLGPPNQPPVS

SARS-CoV-2 RBDwt (residue 319–541) (from UniProt P0DTC2 319-541) (domain or fragment; other documents disagree on this pair)
pKd: 7.86
